± gives the standard deviation of the averaged measurements.
Tested on: ATP
Test: switch fluorescence ratio, 500 uM ATP over buffer (Cy3 cluster intensity, sum of 5 cycles each) (fold (ratio)); higher = stronger signal-on switching upon ATP binding; sequences stand for … in TCGTCGGCAGCGTCAGATGTGTATAAGAGACAGTTTTTTTTTTTTTTTTTTTTTTTTT…TC
Conditions: aptamer strand: ATP DNA aptamer (quencher-CACCTGGGGGAGTATTGCGGAGGAAGG + anchor), 100 nM annealed; ATP concentration: 500 uM
Method in brief: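 Switching-strand clusters labelled with Cy3 on a modified Illumina MiSeq flow-cell were annealed to 100 nM quencher-labelled ATP aptamer, imaged in selection buffer, and re-imaged after 15 min with 500 uM ATP at 22 °C. This was done over five cycles with NaOH stripping and re-annealing in between. The fluorescence ratio is summed target-cycle over summed buffer-cycle Cy3 intensity per cluster, averaged per switch-domain sequence, excluding clusters outside 100-1000 RFU.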
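Note: ATP exposure 15 min at 22 °C before imaging.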

Row | Sequence | switch fluorescence ratio
1 | TAGTACTATC | 0.993 ± 0.021
2 | TAGTAGACTC | 1.46 ± 0.75
3 | TAGTAGGGGG | 0.9691 ± 0.0061
4 | TAGTAGTGTG | 0.9625 ± 0.001
5 | TAGTATAG | 0.9745 ± 0.0045
6 | TAGTATTGTA | 1 ± 0.039
7 | TAGTCGGAGA | 1.01 ± 0.019
8 | TAGTCGTCGT | 1.02 ± 0.0021
9 | TAGTCTTGGG | 1.001 ± 0.0026
10 | TAGTGGGAGA | 1.03 ± 0.029
11 | TAGTGGGCGG | 1.07 ± 0.046
12 | TAGTGGGGGT | 1.01 ± 0.022
13 | TAGTGTAGGA | 1 ± 0.034
14 | TAGTGTCAGG | 0.988 ± 0.038
15 | TAGTGTTGGT | 0.975 ± 0.016
16 | TAGTTAGGCA | 0.9819 ± 0.0053
17 | TAGTTAGTGT | 0.981 ± 0.013
18 | TAGTTATTTA | 0.99 ± 0.033
19 | TAGTTATTTT | 1.01 ± 0.021
20 | TAGTTCGGTG | 0.988 ± 0.042
21 | TAGTTGAGCT | 0.9997 ± 0.0061
22 | TAGTTGCATT | 0.994 ± 0.003
23 | TAGTTGGGGT | 1 ± 0.03
24 | TAGTTGGTCT | 0.974 ± 0.028
25 | TAGTTGTTTT | 1 ± 0.04
26 | TAGTTTAGGT | 0.9964 ± 0.0051

Row | Sequence | switch fluorescence ratio
27 | TAGTTTTAAA | 1.02 ± 0.044
28 | TAGTTTTATA | 1.016 ± 0.009
29 | TAGTTTTGAT | 0.963 ± 0.029
30 | TAGTTTTTTG | 0.993 ± 0.053
31 | TATAAAAAGC | 1 ± 0.013
32 | TATAAAAGTC | 0.992 ± 0.023
33 | TATAAAATTC | 1.24 ± 0.43
34 | TATAAATGTT | 0.9936 ± 0.0065
35 | TATAAATTTT | 0.992 ± 0.036
36 | TATAACGGAT | 1.01 ± 0.025
37 | TATAACGTCC | 1.11 ± 0.093
38 | TATAAGAAGC | 0.993 ± 0.021
39 | TATAAGACTA | 1.02 ± 0.021
40 | TATAAGATGT | 0.983 ± 0.025
41 | TATAAGCGGA | 0.993 ± 0.028
42 | TATAAGGAGT | 1.01 ± 0.044
43 | TATAAGGATC | 0.982 ± 0.057
44 | TATAAGGCTA | 1.02 ± 0.028
45 | TATAAGGGGG | 0.982 ± 0.021
46 | TATAAGGTGT | 1.23 ± 0.11
47 | TATAAGTTCC | 1.07 ± 0.075
48 | TATAAGTTGT | 1 ± 0.011
49 | TATAATAAGG | 0.9996 ± 0.0098
50 | TATAATACAA | 1.024 ± 0.0097
51 | TATAATCGGT | 0.975 ± 0.014
52 | TATAATTAGG | 0.98 ± 0.027

Row | Sequence | switch fluorescence ratio
53 | TATAATTTAC | 1.06 ± 0.017
54 | TATACACGGA | 1.08 ± 0.015
55 | TATACATGCG | 1.04 ± 0.025
56 | TATACGACAT | 1.16 ± 0.2
57 | TATACGATTG | 0.985 ± 0.013
58 | TATACGGCCG | 1 ± 0.0059
59 | TATACGGGGC | 1.01 ± 0.027
60 | TATACGTGGG | 1.03 ± 0.046
61 | TATACGTTTT | 1.12 ± 0.14
62 | TATACTGCAC | 1.54 ± 0.032
63 | TATACTGCGC | 1.065 ± 0.0087
64 | TATAGAAATA | 0.998 ± 0.017
65 | TATAGAAGGG | 1 ± 0.053
66 | TATAGCAAGT | 1.07 ± 0.034
67 | TATAGCTTCG | 1 ± 0.043
68 | TATAGCTTGG | 1 ± 0.029
69 | TATAGGAGGT | 0.987 ± 0.062
70 | TATAGGCCCC | 0.983 ± 0.015
71 | TATAGGGGCT | 0.9805 ± 0.0098
72 | TATAGTAGTG | 0.973 ± 0.014
73 | TATAGTCTCG | 1.01 ± 0.019
74 | TATAGTCTTC | 0.959 ± 0.027
75 | TATAGTGCGT | 0.978 ± 0.03
76 | TATAGTGGGA | 1 ± 0.032
77 | TATATCTGAC | 1.16 ± 0.074
78 | TATATGATG | 1.0194 ± 0.00035

Row | Sequence | switch fluorescence ratio
79 | TATATGATGC | 0.984 ± 0.029
80 | TATATGATGG | 0.982 ± 0.024
81 | TATATGCACT | 1.07 ± 0.024
82 | TATATGGCGT | 0.989 ± 0.019
83 | TATATGGGTT | 0.9849 ± 0.0062
84 | TATATGGTGT | 1.02 ± 0.024
85 | TATATGTGGC | 1.07 ± 0.068
86 | TATATTAGAG | 1.01 ± 0.0023
87 | TATATTAGCT | 1.01 ± 0.026
88 | TATATTGCTA | 1.01 ± 0.026
89 | TATATTTCGT | 1.03 ± 0.07
90 | TATATTTTAG | 1.03 ± 0.021
91 | TATATTTTGG | 1.02 ± 0.074
92 | TATATTTTTT | 1.02 ± 0.068
93 | TATCAAATTG | 1.02 ± 0.025
94 | TATCAGGGGG | 0.988 ± 0.026
95 | TATCAGTGGT | 0.997 ± 0.026
96 | TATCATAGCC | 1.02 ± 0.027
97 | TATCATCCGG | 0.985 ± 0.032
98 | TATCATGTTG | 0.9987 ± 0.0047
99 | TATCATTTAA | 1.005 ± 0.009
100 | TATCCAACAT | 1.036 ± 0.00037
101 | TATCCACCGT | 1.077 ± 0.0031
102 | TATCCCTGCT | 1 ± 0.027
103 | TATCGAAGTG | 0.993 ± 0.019
104 | TATCGACGGC | 1.03 ± 0.05

Row | Sequence | switch fluorescence ratio
105 | TATCGCGAAT | 1.01 ± 0.021
106 | TATCGGCTGG | 1.01 ± 0.025
107 | TATCGGGATT | 1.02 ± 0.026
108 | TATCGGGGCA | 0.9622 ± 0.007
109 | TATCGGTCTA | 1.006 ± 0.005
110 | TATCGGTTAT | 0.984 ± 0.013
111 | TATCGTAAAT | 1 ± 0.029
112 | TATCGTATTC | 0.97 ± 0.037
113 | TATCGTGGGA | 1.01 ± 0.019
114 | TATCGTTTAA | 0.987 ± 0.032
115 | TATCTAAATC | 0.9967 ± 0.0063
116 | TATCTAATGC | 1 ± 0.085
117 | TATCTACAAT | 1.01 ± 0.02
118 | TATCTACGGG | 1.036 ± 0.0013
119 | TATCTTAGGC | 1.01 ± 0.027
120 | TATCTTTAAC | 1.03 ± 0.024
121 | TATCTTTAGT | 0.989 ± 0.015
122 | TATCTTTCTT | 1.06 ± 0.019
123 | TATCTTTTTC | 1.04 ± 0.084
124 | TATGAAAGGG | 1.13 ± 0.16
125 | TATGAAGGGA | 0.99 ± 0.021
126 | TATGAATCAG | 0.998 ± 0.019
127 | TATGAGGTTC | 0.983 ± 0.1
128 | TATGATCTTT | 1.029 ± 0.0052
129 | TATGATGCAT | 0.991 ± 0.028
130 | TATGATGTCG | 1.01 ± 0.027

Row | Sequence | switch fluorescence ratio
131 | TATGATTTAA | 1.01 ± 0.016
132 | TATGCAGTCA | 1.01 ± 0.029
133 | TATGCCTTCG | 1.09 ± 0.05
134 | TATGCCTTTG | 0.987 ± 0.033
135 | TATGCGGACA | 1.04 ± 0.027
136 | TATGCGGTCC | 1.02 ± 0.019
137 | TATGCTAAAA | 0.965 ± 0.038
138 | TATGCTGCTG | 1.01 ± 0.036
139 | TATGCTTATA | 0.98 ± 0.014
140 | TATGGAAGCA | 0.994 ± 0.014
141 | TATGGACATT | 1.03 ± 0.011
142 | TATGGAGCGT | 1.04 ± 0.018
143 | TATGGAGGCT | 1.07 ± 0.015
144 | TATGGATAGT | 0.998 ± 0.017
145 | TATGGATTGC | 0.988 ± 0.032
146 | TATGGCATCT | 1 ± 0.051
147 | TATGGCCCGG | 1.02 ± 0.0014
148 | TATGGCGGTC | 0.92422 ± 0.00078
149 | TATGGCGGTG | 0.989 ± 0.021
150 | TATGGGAGTT | 1 ± 0.01
151 | TATGGGCAGT | 1.007 ± 0.0017
152 | TATGGGCGTC | 0.999 ± 0.011
153 | TATGGGGCAG | 0.99 ± 0.0093

— the supplement of paper PMC10126150
